Measured values as given in US8759300 (RESEARCH FOUNDATION FOR THE STATE UNIVERSITY OF NEW YORK, dated 2014).

B1: peptide 3 NGQTPIQRTIKPDVRSYTITGLQPGT (peptide)
peptide: NGQTPIQRTIKPDVRSYTITGLQPGT
notes: also called P3; FN1852-877 (so in the source)
B2: peptide 2 (FN680-704) QLISIQQYGHQEVTRFDFTTTSTST (peptide)
peptide: QLISIQQYGHQEVTRFDFTTTSTST
notes: also called P2
B3: peptide 4 (FN2043-2067) QPSVGQQMIFEEHGFRRTTPPTTAT (peptide)
peptide: QPSVGQQMIFEEHGFRRTTPPTTAT
notes: also called P4
B4: peptide 1 (FN634-658) QPSHISKYILRWRPKNSVGRWKEAT (peptide)
peptide: QPSHISKYILRWRPKNSVGRWKEAT
notes: A Cys-tagged form was used in the FN-null cell assay; also called P1
B5: synthetic peptide homologous to PDGF-BB, CKTRTEVFEISRRLI (peptide)
peptide: CKTRTEVFEISRRLI
B6: IIICS, variably-spliced domain of fibronectin (other, human)
chain: MGSDELPQLVTLPHPNLHGPEILDVPSTVQKTPFVTHPGYDTGNGIQLPGTSGQQPSVGQQMIFEEHGFRRTTPPTTATPIRHRPRPYPPNVGEEIQIGHIPREDVDYHLYPHGPGLNPNASTTSHHHHHHC
notes: domain: IIICS; The IIICS construct is not described separately
B7: EGF (ligand, UniProt P01133 971-1023, looked up)
chain: NSDSECPLSHDGYCLHDGVCMYIEALDKYACNCVVGYIGERCQYRDLKWWELR
B8: synthetic peptide homologous to TGF-β1, CCVRQLYIDFRKDLG (peptide)
peptide: CCVRQLYIDFRKDLG

Assays:
FGF-1 = FGF-1 (UniProt P05230 16-155, limits assumed); experiment: equilibrium and kinetic binding
EGF = target: B7; experiment: equilibrium and kinetic binding
TGF-α = TGF-α (UniProt P01135 40-89); experiment: equilibrium and kinetic binding
[1] = target: T1, basic fibroblast growth factor (bFGF, FGF-2) (human, UniProt P09038 143-288, limits assumed); experiment: peptide binding to the GF
[2] = target: T2, intact human plasma fibronectin (FN) (human, UniProt P02751 32-2477); experiment: competition: I-125 PDGF-BB bound to intact human plasma FN adsorbed on plastic (0.125 µM, blocked with 2% BSA), 25°C, 2 h, with rising peptide; % of binding without peptide, n=3 [right panel]
T2 construct: Adsorbed to plastic or coupled to agarose beads in the assays; The background calls plasma FN a disulfide-linked dimer; also called intact FN
Experimental: (§1) Figure 9: FIG. 9. Inhibition of TGF-β1 and PDGF-BB binding to intact human plasma FN with TGF-β1 and PDGF-BB FN-binding peptides, respectively. FN was adsorbed onto tissue culture plastic at a concentration of 0.125 μM and then excess protein-binding sites of the plastic blocked with 2% bovine serum albumin. Growth factor labeled with I^125 was incubated with FN-coated plates at 25° C. for 2 hours in the presence or absence of peptide. Data was calculated as [(GF binding in presence of peptide–background)/(GF binding in absence of peptide-background)]×100. n=3.
(§2) Two of these synthetic peptides (homologous to TGF-β1 and homologous to PDGF-BB) inhibit TGF-β1 and PDGF-BB binding to FN respectively (FIG. 9). Inhibition of TGF-β1 and PDGF-BB binding to intact human plasma FN was determined as follows. FN was adsorbed onto tissue culture plastic at a concentration of 0.125 μM and then excess protein-binding sites of the plastic blocked with 2% bovine serum albumin. Growth factor labeled with I^125 was incubated with FN-coated plates at 25° C. for 2 hours in the presence or absence of peptide. For example, relative binding of TGF-β1 to immobilized FN was determined for increasing concentrations of the synthetic peptide homologous to TGF-β1. […] For example, relative binding of PDGF-BB to immobilized FN was determined for increasing concentrations of the synthetic peptide homologous to PDGF-BB. […]

[3] = target: T1, basic fibroblast growth factor (bFGF, …); experiment: method not restated in the sentence
[4] = target: T1, basic fibroblast growth factor (bFGF, …); experiment: equilibrium or kinetic binding, not said which
[5] = target: T3, FNIII12-15 (H), heparinII-binding domain of fibronectin (human, UniProt P02751-10 1631-1987); experiment: binding to FN functional domains
T3 construct: domain: FNIII12-15; Recombinant

FNIII2 = target: T4, FNIII2 (human, UniProt P02751 722-812, limits assumed); experiment: binding to FN functional domains
T4 construct: domain: FNIII2; Recombinant

FNIII1-2 = target: T5, FNIII1-2 (human, UniProt P02751 610-812, limits assumed); experiment: binding to FN functional domains
T5 construct: domain: FNIII1-2; Recombinant

[6] = target: B6; experiment: binding to FN functional domains
FNIII1-11 = target: T6, FNIII1-11 (human, UniProt P02751-8 610-1630); experiment: binding to FN functional domains
T6 construct: domain: FNIII1-11; Recombinant

FNIII12-14 = target: T7, FNIII12-14 (human, UniProt P02751 1812-2082); experiment: binding to FN functional domains
T7 construct: domain: FNIII12-14; Recombinant

FNIII1 = target: T8, FNIII1 (human, UniProt P02751 610-702, limits assumed); experiment: binding to FN functional domains
T8 construct: domain: FNIII1; Recombinant; also called FNIIII [sic]

[7] = target: T2, intact human plasma fibronectin (FN); experiment: equilibrium binding to FN adsorbed to a surface or coupled to agarose beads
FNIII1-7 = target: T9, FNIII1-7 (human, UniProt P02751 610-1266, limits assumed); experiment: equilibrium and kinetic binding
T9 construct: domain: FNIII1-7; This construct is not described separately

[8] = target: T10, FN70, the 70 kDa amino terminus of fibronectin (UniProt P02751 32-608, limits assumed); experiment: equilibrium and kinetic binding
T10 construct: domain: FN70 (70 kDa amino terminus); also called amino-terminal end of FN

FNIII3-6 = target: T11, FNIII3-6 (human, UniProt P02751 813-1175, limits assumed); experiment: equilibrium and kinetic binding
T11 construct: domain: FNIII3-6; Recombinant; also called FNII3-6 [sic]

[9] = target: T12, FNIII8-11 (C), classic cell-binding domain of fibronectin containing RGD (human, UniProt P02751 1358-1721); experiment: equilibrium and kinetic binding
T12 construct: domain: FNIII8-11; Recombinant

[10] = target: T13, FNIII12-V15 (HV), composite heparinII-binding and variably-spliced IIICS domains of fibronectin (human, UniProt P02751 1812-2288); experiment: plasmon resonance modulation
T13 construct: domain: FNIII12-V15; Recombinant, from E. coli; Some constructs carry GST at the C-terminus

[11] = target: T2, intact human plasma fibronectin (FN); experiment: competition: I-125 TGF-β1 bound to intact human plasma FN adsorbed on plastic (0.125 µM, blocked with 2% BSA), 25°C, 2 h, with rising peptide; % of binding without peptide, n=3 [left panel]
Experimental: as §1, §2

T1 sequence (P09038 143-288 limits assumed): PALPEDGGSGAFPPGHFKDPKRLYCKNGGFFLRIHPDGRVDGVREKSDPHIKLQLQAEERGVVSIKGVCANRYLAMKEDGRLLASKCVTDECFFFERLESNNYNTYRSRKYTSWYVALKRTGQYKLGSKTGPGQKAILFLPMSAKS
Chain of TGF-α (P01135 40-89 limits assumed): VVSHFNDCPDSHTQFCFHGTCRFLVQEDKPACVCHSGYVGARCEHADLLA
Chain of FGF-1 (P05230 16-155 limits assumed): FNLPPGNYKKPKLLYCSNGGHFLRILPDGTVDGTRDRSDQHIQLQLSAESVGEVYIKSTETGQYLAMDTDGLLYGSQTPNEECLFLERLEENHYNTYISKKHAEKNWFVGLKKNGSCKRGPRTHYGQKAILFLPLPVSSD
T2 sequence (P02751 other isoform, or with tags, fused parts or gaps limits assumed): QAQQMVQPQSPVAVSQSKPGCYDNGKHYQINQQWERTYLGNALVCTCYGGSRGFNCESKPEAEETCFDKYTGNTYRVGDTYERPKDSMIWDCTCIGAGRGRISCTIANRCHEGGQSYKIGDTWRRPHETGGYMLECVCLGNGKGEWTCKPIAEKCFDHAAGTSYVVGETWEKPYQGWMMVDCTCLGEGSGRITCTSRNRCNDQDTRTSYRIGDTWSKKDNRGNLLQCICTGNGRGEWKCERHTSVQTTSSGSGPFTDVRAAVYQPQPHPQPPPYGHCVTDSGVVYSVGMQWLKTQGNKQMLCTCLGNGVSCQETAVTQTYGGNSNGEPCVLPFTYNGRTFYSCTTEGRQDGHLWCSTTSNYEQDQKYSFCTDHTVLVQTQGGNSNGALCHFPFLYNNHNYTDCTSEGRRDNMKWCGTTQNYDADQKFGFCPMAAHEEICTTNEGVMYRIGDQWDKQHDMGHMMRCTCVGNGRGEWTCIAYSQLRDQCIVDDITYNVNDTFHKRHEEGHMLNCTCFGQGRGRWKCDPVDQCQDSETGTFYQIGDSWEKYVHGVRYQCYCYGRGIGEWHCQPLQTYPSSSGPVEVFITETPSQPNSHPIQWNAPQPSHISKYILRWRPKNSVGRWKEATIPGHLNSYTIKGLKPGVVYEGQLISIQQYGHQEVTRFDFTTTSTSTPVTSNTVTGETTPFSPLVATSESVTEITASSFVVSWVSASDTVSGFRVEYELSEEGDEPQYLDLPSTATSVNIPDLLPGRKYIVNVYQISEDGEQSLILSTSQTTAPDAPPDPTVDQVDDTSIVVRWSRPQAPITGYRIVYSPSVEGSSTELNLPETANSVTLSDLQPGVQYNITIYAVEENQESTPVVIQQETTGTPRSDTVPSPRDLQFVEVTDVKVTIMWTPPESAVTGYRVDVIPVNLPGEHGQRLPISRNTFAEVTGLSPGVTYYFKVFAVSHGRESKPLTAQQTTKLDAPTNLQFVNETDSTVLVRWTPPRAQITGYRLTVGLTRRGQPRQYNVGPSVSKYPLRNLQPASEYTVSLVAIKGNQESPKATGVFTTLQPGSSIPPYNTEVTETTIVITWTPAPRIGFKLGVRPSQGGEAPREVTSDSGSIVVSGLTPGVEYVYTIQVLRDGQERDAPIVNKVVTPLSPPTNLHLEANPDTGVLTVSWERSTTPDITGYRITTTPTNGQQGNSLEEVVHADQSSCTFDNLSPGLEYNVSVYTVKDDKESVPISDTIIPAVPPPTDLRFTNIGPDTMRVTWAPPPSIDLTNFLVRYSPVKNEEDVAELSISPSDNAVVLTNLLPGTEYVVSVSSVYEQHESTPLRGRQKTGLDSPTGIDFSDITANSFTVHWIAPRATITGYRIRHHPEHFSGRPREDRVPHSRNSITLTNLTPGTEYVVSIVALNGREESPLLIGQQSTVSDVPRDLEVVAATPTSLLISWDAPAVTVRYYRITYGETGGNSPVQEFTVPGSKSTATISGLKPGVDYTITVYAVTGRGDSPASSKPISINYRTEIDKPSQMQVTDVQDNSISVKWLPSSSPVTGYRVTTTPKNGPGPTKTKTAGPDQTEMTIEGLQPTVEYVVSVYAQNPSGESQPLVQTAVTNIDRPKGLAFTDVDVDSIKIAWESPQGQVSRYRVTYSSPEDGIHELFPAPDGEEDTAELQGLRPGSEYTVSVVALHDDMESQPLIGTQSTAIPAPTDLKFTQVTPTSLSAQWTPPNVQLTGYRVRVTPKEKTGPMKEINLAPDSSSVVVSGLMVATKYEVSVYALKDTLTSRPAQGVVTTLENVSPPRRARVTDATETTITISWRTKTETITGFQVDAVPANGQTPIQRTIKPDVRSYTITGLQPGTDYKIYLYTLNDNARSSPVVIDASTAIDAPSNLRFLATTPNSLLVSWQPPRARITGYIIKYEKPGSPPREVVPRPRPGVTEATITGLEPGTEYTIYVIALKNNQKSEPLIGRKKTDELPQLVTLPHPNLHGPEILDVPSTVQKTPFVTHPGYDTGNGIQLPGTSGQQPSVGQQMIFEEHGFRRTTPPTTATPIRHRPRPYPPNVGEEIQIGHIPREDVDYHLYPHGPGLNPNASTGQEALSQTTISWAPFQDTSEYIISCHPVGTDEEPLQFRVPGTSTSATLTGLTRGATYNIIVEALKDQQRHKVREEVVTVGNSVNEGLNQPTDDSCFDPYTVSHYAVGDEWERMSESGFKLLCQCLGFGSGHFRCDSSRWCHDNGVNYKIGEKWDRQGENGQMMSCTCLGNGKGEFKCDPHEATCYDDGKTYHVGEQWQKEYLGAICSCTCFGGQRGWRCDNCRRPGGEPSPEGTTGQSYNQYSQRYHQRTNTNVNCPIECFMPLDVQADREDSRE
T8 sequence (P02751 other isoform, or with tags, fused parts or gaps limits assumed): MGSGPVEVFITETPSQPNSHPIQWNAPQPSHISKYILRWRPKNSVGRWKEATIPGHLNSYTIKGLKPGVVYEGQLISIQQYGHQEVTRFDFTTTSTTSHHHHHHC
T6 sequence (P02751 other isoform, or with tags, fused parts or gaps limits assumed): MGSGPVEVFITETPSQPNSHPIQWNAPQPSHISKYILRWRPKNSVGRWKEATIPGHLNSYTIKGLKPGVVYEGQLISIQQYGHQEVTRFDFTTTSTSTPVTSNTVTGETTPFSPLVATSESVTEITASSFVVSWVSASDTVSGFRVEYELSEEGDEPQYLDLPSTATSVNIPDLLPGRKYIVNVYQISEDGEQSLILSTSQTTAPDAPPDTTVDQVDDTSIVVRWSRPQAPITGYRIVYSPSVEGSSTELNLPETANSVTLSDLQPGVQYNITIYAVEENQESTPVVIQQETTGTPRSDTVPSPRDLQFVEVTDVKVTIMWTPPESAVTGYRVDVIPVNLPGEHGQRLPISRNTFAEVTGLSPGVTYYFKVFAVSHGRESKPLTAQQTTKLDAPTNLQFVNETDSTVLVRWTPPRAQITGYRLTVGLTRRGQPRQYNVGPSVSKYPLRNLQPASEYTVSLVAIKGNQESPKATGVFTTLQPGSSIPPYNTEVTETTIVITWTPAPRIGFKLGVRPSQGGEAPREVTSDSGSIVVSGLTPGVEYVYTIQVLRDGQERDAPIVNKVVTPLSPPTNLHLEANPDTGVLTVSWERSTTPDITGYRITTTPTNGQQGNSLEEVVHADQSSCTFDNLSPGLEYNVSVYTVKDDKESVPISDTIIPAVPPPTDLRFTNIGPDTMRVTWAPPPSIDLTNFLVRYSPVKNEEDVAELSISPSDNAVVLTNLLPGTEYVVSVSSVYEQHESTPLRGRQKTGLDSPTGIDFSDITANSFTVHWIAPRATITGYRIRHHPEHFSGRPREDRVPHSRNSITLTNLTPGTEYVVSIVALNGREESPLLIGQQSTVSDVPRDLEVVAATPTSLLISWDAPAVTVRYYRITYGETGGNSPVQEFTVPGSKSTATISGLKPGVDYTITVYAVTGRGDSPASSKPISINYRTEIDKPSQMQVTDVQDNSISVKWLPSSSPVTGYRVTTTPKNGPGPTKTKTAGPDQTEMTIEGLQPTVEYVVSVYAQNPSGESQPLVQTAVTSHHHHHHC
T7 sequence (P02751 other isoform, or with tags, fused parts or gaps limits assumed): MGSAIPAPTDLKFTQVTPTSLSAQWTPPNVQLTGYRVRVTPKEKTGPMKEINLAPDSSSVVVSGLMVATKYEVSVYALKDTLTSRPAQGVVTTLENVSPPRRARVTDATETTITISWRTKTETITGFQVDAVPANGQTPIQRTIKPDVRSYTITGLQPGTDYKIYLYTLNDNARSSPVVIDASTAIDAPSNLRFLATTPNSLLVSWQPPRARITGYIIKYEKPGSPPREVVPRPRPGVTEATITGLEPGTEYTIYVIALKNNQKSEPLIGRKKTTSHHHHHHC
T5 sequence (P02751 other isoform, or with tags, fused parts or gaps limits assumed): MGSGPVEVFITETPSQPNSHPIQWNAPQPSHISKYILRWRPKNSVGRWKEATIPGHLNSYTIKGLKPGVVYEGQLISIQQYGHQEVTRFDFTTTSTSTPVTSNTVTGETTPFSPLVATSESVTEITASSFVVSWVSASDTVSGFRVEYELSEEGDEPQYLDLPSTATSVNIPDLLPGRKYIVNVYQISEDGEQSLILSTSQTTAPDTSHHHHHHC
T10 sequence (P02751 32-608 limits assumed): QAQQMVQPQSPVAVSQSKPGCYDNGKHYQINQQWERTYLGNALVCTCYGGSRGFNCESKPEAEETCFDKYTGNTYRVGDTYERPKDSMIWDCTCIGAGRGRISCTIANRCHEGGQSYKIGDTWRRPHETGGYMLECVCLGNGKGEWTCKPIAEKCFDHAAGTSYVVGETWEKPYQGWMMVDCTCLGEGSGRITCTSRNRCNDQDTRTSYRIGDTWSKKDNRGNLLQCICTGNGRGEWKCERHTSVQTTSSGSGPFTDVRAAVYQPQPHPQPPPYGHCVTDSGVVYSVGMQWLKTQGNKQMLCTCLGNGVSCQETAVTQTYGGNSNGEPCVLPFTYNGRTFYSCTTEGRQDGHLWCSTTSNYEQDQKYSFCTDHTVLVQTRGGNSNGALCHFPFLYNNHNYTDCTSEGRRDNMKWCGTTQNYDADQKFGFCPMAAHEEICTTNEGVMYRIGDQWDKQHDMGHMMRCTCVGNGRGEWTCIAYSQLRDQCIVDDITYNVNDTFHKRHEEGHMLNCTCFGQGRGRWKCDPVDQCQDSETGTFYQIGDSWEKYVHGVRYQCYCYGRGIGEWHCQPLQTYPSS

Binder | binding result (FGF-1) | binding result (EGF) | binding result (TGF-α) | binding result [1] | other results
B1 | no binding | no binding | no binding | binds | –
B2 | no binding | no binding | no binding | binds | –
B3 | no binding | no binding | no binding | binds | –
B4 | no binding | no binding | no binding | binds | –
B5 | – | – | – | – | binding result [2]: binds
B6 | no binding | – | – | – | Kd [3]: ~100 nM; Kd [4]: 58 nM
B7 | – | – | – | – | binding result [5]: no binding; binding result (FNIII2): no binding; binding result (FNIII1-2): no binding; binding result [6]: no binding; binding result (FNIII1-11): no binding; binding result (FNIII12-14): no binding; binding result (FNIII1): no binding; binding result [7]: no binding; binding result (FNIII1-7): no binding; binding result [8]: no binding; binding result (FNIII3-6): no binding; binding result [9]: no binding; binding result [10]: no binding
B8 | – | – | – | – | IC50 (read off the curve) [11]: ~8000 nM
